Test results: publication PMC6073801

Experiments:
[1] = molecular target: ECD_FGFR1-Fc receptor (extracellular region of fibroblast growth factor receptor 1) (UniProt P11362)
[2] = molecular target: ECD_FGFR1-Fc receptor (extracellular region of fibroblast growth factor receptor 1) (UniProt P11362); remark: listed apart in the source

Chain of UniProt P11362 (P11362 22-376): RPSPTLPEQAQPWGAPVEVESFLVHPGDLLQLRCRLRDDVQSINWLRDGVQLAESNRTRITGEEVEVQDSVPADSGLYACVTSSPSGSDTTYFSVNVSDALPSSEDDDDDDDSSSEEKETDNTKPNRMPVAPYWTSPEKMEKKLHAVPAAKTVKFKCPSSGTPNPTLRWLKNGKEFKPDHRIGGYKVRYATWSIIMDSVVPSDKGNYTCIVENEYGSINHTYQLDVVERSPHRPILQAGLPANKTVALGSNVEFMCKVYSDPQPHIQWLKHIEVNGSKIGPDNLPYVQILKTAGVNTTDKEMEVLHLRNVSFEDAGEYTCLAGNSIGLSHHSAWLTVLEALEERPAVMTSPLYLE

FGF2 Cys78-α-amanitin/PrK96-MMAE conjugate (from UniProt P09038-2 23-155) (ligand)
internalization of the DyLight550-labelled conjugate, intracellular fluorescence, NCI-H520 (FGFR1 positive) against HCC-15 (FGFR1 negative) cells [1]: 2 times
internalization of the DyLight550-labelled conjugate, intracellular fluorescence, U2OS-FGFR1 against control U2OS cells [1]: 5 fold
cytotoxicity (AlamarBlue viability), FGFR1-positive NCI-H446 cells, reduction of viability at the highest tested concentration; no toxicity for FGFR1-negative HCC-15 [2]: 95%
